Patent US20240016923A1

Experiments:
Assay in all cases: dose-dependent ELISA, antigen captured by GNA lectin
[1] = molecular target: secreted E1E2 with c-Fos/c-Jun leucine zipper scaffold (sE1E2.LZ) (Hepatitis C virus H77; human)
[2] = molecular target: membrane-bound E1E2 (mbE1E2) (Hepatitis C virus, isolate H77C (genotype 1a)) (UniProt P27958)
[3] = molecular target: secreted E2 ectodomain (sE2), HCV E2 residues 384-661 (Hepatitis C virus, isolate H77C) (UniProt P27958)

Substance	Kd [1]	Kd [2]	Kd [3]	fold lower affinity relative to mbE1E2 [1]
CBH-7 (antibody)	1.7 nM	1 nM	0.3 nM	–
HCV1 (antibody)	3.5 nM	9.8 nM	6.2 nM	–
HC84.24 (antibody)	–	–	0.7 nM	–
HC33.1 (antibody)	0.9 nM	3.8 nM	1.9 nM	–
AR4A (antibody)	16 nM	2.3 nM	–	8 fold
CBH-4G (antibody)	18 nM	7.8 nM	0.5 nM	–
CBH-4D (antibody)	26 nM	28 nM	1 nM	–
HC-11 (antibody)	3.2 nM	1.8 nM	11 nM	–
AR5A (antibody)	1.7 nM	1.5 nM	–	–
HC-1 AM (affinity-matured HC-1 antibody)	2.9 nM	1.5 nM	3.6 nM	–
